Patent US20180009899A1 (CORVUS PHARMACEUTICALS, published 2018)

T1: Cellular CD73 on MDA-MB-231 human breast cancer cells (human, UniProt P21589 27-549)
T1 construct: whole, on cells; Endogenous CD73 on MDA-MB-231 cells; also called 5'-nucleotidase; ecto-5'-nucleotidase
T1 sequence (looked up): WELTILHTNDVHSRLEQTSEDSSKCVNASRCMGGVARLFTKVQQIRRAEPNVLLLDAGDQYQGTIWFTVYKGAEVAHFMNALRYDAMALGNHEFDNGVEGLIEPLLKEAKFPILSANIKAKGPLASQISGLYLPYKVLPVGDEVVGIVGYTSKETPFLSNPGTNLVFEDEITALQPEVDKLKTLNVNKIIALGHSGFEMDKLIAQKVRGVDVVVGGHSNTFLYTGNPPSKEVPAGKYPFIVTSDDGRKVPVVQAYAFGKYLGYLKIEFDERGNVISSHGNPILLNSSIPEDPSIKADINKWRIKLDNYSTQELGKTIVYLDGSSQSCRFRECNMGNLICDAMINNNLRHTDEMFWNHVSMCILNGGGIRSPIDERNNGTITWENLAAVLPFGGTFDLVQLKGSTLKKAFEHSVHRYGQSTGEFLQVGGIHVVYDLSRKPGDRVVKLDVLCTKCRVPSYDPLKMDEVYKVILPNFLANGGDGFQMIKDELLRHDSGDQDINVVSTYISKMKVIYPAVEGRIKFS

B1: CPX-006 (glycosylated) (antibody, human IgG1, kappa, N297Q, V domains shown)
VH: QVQLVQSGAEVEKPGASVKVSCKASGYTFTSYWITWVRQAPGQGLEWMGDIYPGSGNTNYNEKFKTRVTITADKSTSTAYMELSSLRSEDTAVYYCAKEGGLTTEDYALDYWGQGTLVTVSS
VL: EIVLTQSPATLSLSPGERATLSCRASKNVSTSGYSYMHWYQQKPGQAPRLLIYLASNLESGIPPRFSGSGYGTDFTLTINNIESEDAAYYFCQHSRELPFTFGQGTKVEIKR
modifications: N-linked glycosylation on CDR L1 (NXS motif at Kabat 27A-27C)
notes: Humanized anti-CD73 antibody with the CDRs of mouse 1E9; also called BAP094-hum07; glycosylated antibody
B2: CPX-008 (antibody, V domains shown)
VH: QVQLVQSGAEVEKPGASVKVSCKASGYTFTSYWITWVRQAPGQGLEWMGDIYPGSGNTNYNEKFKTRVTITADKSTSTAYMELSSLRSEDTAVYYCAKEGGLTTEDYALDYWGQGTLVTV
VL: EIVLTQSPATLSLSPGERATLSCRASKQVSTSGYSYMHWYQQKPGQAPRLLIYLASNLESGIPPRFSGSGYGTDFTLTINNIESEDAAYYFCQHSRELPFTFGQGTKVEIK
notes: also called aglycosylated antibody
B3: CPX-012 (antibody, V domains shown)
VH: QVQLVQSGAEVEKPGASVKVSCKASGYTFTSYWITWVRQAPGQGLEWMGDIYPGSGNTNYNEKFKTRVTITADKSTSTAYMELSSLRSEDTAVYYCAKEGGLTTEDYALDYWGQGTLVTV
VL: AIQLTQSPSSLSASVGDRVTITCRASKQVSTSGYSYMHWYQQKPGQAPRLLIYLASNLESGVPSRFSGSGSGTDFTFTISSLEAEDAATYYCQHSRELPFTFGQGTKVEIK
B4: CPX-011 (antibody, V domains shown)
VH: QVQLVQSGAEVEKPGASVKVSCKASGYTFTSYWITWVRQAPGQGLEWMGDIYPGSGNTNYNEKFKTRVTITADKSTSTAYMELSSLRSEDTAVYYCAKEGGLTTEDYALDYWGQGTLVTV
VL: EIVLTQSPATLSLSPGERATLSCRASKNVATSGYSYMHWYQQKPGQAPRLLIYLASNLESGIPPRFSGSGYGTDFTLTINNIESEDAAYYFCQHSRELPFTFGQGTKVEIK
notes: A at Kabat 27C of CDR L1, made in the CPX-006 light chain
B5: CPX-014 (antibody, V domains shown)
VH: QVQLVQSGAEVEKPGASVKVSCKASGYTFTSYWITWVRQAPGQGLEWMGDIYPGSGNTNYNEKFKTRVTITADKSTSTAYMELSSLRSEDTAVYYCAKEGGLTTEDYALDYWGQGTLVTV
VL: EIVLTQSPATLSLSPGERATLSCRASKDVSTSGYSYMHWYQQKPGQAPRLLIYLASNLESGIPPRFSGSGYGTDFTLTINNIESEDAAYYFCQHSRELPFTFGQGTKVEIK
notes: D at Kabat 27A of CDR L1, made in the CPX-006 light chain
B6: CPX-009 (antibody, V domains shown)
VH: QVQLVQSGAEVEKPGASVKVSCKASGYTFTSYWITWVRQAPGQGLEWMGDIYPGSGNTNYNEKFKTRVTITADKSTSTAYMELSSLRSEDTAVYYCAKEGGLTTEDYALDYWGQGTLVTV
VL: EIVLTQSPATLSLSPGERATLSCRASKAVSTSGYSYMHWYQQKPGQAPRLLIYLASNLESGIPPRFSGSGYGTDFTLTINNIESEDAAYYFCQHSRELPFTFGQGTKVEIK
notes: A at Kabat 27A of CDR L1, made in the CPX-006 light chain

These binders were tested against T1, Cellular CD73 on MDA-MB-231 human … (assay: flow cytometry on MDA-MB-231 cells, PE anti-human secondary).

Binding result, binds:
B1
B2
B3
B4
B5
B6
